Measured values: paper PMC3244446, “Soluble CD44 Interacts with Intermediate Filament Protein Vimentin on Endothelial Cell Surface” (PLoS ONE, 2011)
“And” between values parts separate entries of the source, which are not always exact repeats. Equal entries are not always repeated.

Key:
Settings in all cases: both partners purified
[1] = target: T1, recombinant full length human vimentin, His-tagged (human, UniProt P08670 1-466); assay: ITC; 50 mM Tris, 150 mM NaCl, pH 8.0, 25°C; two preparations of CD443MUT (A, B), two pairs of concentrations each; n is vimentin/CD443MUT (mol/mol)
T1 construct: vimentin, human, full length; The oligomeric state in the assays is not measured; the discussion supposes unit-length filaments; also called recombinant vimentin; source: expressed using pET15b vector
T1 sequence (P08670 whole entry): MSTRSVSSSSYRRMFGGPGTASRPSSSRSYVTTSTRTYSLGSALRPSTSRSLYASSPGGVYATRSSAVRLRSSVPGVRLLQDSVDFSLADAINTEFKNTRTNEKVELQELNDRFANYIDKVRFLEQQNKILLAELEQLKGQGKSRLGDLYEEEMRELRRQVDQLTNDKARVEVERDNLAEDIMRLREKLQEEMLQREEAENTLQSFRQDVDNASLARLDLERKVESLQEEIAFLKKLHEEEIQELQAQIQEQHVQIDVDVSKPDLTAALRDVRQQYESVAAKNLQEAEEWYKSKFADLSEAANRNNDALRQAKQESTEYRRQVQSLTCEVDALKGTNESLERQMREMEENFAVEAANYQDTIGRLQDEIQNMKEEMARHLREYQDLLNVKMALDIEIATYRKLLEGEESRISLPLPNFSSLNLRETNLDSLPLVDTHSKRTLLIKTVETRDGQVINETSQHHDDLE

[2] = target: T1, recombinant full length human vimentin, …; assay: SPR; Biacore3000; vimentin amine-coupled to CM5 chip; CD443MUT 0.46–123 µM injected; 50 mM Tris, 150 mM NaCl, pH 8.0; parallel two-site binding model and equilibrium analysis (equation 1)
[3] = target: T1, recombinant full length human vimentin, …; assay: as above; remark: listed apart in the source
[4] = target: T1, recombinant full length human vimentin, …; assay: pull-down; GST-CD44HABD or GST-CD443MUT with recombinant vimentin

stoichiometry N [1]	KD of the low affinity site [2] [µM]	KD from equilibrium response values (equation 1) [3] [µM]	KD of the high-affinity site (Kdiss1/Kass1) [3] [µM]	stoichiometry N [3] [mol/mol]	binding result [4]	Binder
9.9 mol/mol and 7.2 mol/mol	15	15 ± 2	0.074	6.2	–	CD443MUT (CD44HABD^R41AR78SY79S), recombinant, unlabeled (domain or fragment, human, UniProt P16070 21-132, looked up, Two preparations (A, B) were used in ITC; also called CD44HABD Arg41Ala, Arg78Ser, Tyr79Ser triple mutant; source: expressed using pET11c vector) QIDLNITCRFAGVFHVEKNGAYSISRTEAADLCKAFNSTLPTMAQMEKALSIGFETCSSGFIEGHVVIPRIHPNSICAANNTGVYILTSNTSQYDTYCFNASAPPEEDCTSV
–	–	–	–	–	binds	GST-tagged CD44 hyaluronan binding domain 21–132 (CD44HABD) (domain or fragment, human, UniProt P16070 21-132, looked up, also called GST-HABD; CD44 HABD 21–132; source: recombinant GST fusion-protein, purified as described [27]) QIDLNITCRFAGVFHVEKNGRYSISRTEAADLCKAFNSTLPTMAQMEKALSIGFETCRYGFIEGHVVIPRIHPNSICAANNTGVYILTSNTSQYDTYCFNASAPPEEDCTSV
